Source: US9879094B2, “Nucleic acid molecules encoding for BACE1 antibodies” (Genentech, Inc., priority 2010, dated 2018)
“And” between values parts separate entries of the source, which are not always exact repeats. Equal entries are not always repeated. “Also recorded” adds a separate entry of the source.

Key:
[1] = tested on: Aβ1-40 in wild-type C57Bl/6J mice; experiment: Wild-type C57Bl/6J mice, IP dosing, Aβ1-40 levels; assay type: in vivo, mouse
Method: Additional experiments with wild-type C57Bl/6J mice were performed in which 100 mg/kg of YW412.8.31, or a control IgG, was administered systemically. Levels of Aβ1-40 in both the plasma and forebrain of treated animals four hours after a single intraperitoneal (IP) injection were determined. Blood was collected from animals by cardiac puncture to isolate plasma.
Following PBS perfusion, the brain was harvested and forebrain from one hemibrain was prepared in PK buffer (1% NP-40 in PBS, with Roche complete protease inhibitors) whereas forebrain from the other hemibrain was homogenized in 5M GuHCL, 50 mM Tris pH 8.0, and further diluted in Casein Blocking Buffer (0.25% casein/0.05% sodium azide, 20 μg/ml aprotinin/5 mM EDTA, pH 8.0/10 μg/ml leupeptin in PBS) for Aβ1-40 analysis.
Additional experiments were performed in order to determine the effect of elevated brain antibody levels through repeated dosing. YW412.8.31 antibody, or control IgG, was administered at 30 or 100 mg/kg IP every 4 days for a total of 3 doses. In this study the levels of Aβ1-40 in both the plasma and forebrain of treated animals 4 hours post last dose were measured. Again, ˜50% reduction in plasma Aβ1-40 levels following multi-dosing at both 30 and 100 mg/kg was observed (FIG. 22, panel B). […] YW412.8.31 antibody concentrations in serum were 480±210 and 1500±440 μg/mL, and concentrations in brain were 0.9±0.6 μg/g (5.9±4.3 nM) and 3.0±1.6 μg/g (20±10 nM) following administration at 30 and 100 mg/kg given every 4 days, respectively.

[2] = Antibody concentration in serum and brain of wild-type mice; assay type: in vivo, mouse
Method: Total anti-BACE1 antibody concentrations in mouse serum and brain samples were measured as follows. Antibody concentrations in mouse serum and brain samples were measured using an enzyme-linked immunosorbent assay (ELISA). NUNC 384 well Maxisorp immunoplates (Neptune, N.J.) were coated with F(ab′)2 fragment of donkey anti-human IgG, Fc fragment specific polyclonal antibody (Jackson ImmunoResearch, West Grove, Pa.) overnight at 4° C. Plates were blocked with phosphate-buffered saline (PBS) containing 0.5% bovine serum albumin (BSA) for 1 hour at room temperature the next day. Each antibody (Control IgG and anti-BACE1) was used as a standard to quantify the respective antibody concentrations. After washing plates with PBS containing 0.05% Tween 20 using a microplate washer (Bio-Tek Instruments, Inc., Winooski, Vt.), standards and samples diluted in PBS containing 0.5% BSA, 0.35 M NaCl, 0.25% CHAPS, 5 mM EDTA, 0.05% Tween 20 and 15 ppm Proclin were incubated on plates for 2 hours at room temperature with mild agitation. Bound antibody was detected with horseradish peroxidase conjugated F(ab′)2 goat anti-human IgG, Fc specific polyclonal antibody (Jackson ImmunoResearch). Finally, plates were developed using the substrate 3,3′,5,5′-tetramethyl benzidine (TMB) (KPL, Inc., Gaithersburg, Md.). Absorbance was measured at a wavelength of 450 nm with a reference of 630 nm on a Multiskan Ascent reader (Thermo Scientific, Hudson, N.H.). Concentrations were determined from the standard curve using a four-parameter non-linear regression program.

mouse cortical neurons = experiment: Antibody internalization in primary neurons; assay type: cell-based
Method: BACE1 is known to be expressed intracellularly, particularly in the Golgi. To ascertain whether or not YW412.8.31 interacts with BACE1 in an intracellular environment, internalization studies were performed. One set of neuronal cultures was prepared from E13.5 dorsal root ganglia (DRG) explants, and a second set of neuronal cultures was prepared from E16.5 dissociated cortical neurons from BACE1+/+ or BACE1−/− mice and cultured for 24 or 72 hours, respectively, at 37° C. Media containing 0.5 μM YW412.8.31 anti-BACE1 antibody was added to the cultures for time periods varying from 30 minutes to 2 hours, and incubated at either 4° C. or 37° C. Unbound antibody was washed out thoroughly with PBS after treatment. […] Bound antibody was detected using a secondary Alexa 568-conjugated anti-Human IgG1 antibody (Molecular Probes) according to the manufacturer's directions.
Additionally, mouse cortical neurons were cultured in the presence of YW412.8.31 anti-BACE1 antibody or a control IgG for 10 minutes or 3 hours, after which the antibody was detected by immunostaining Neuronal cultures were prepared from E15.5 dissociated cortical neurons, and cultured for 14 DIV. […] Bound antibody was detected using an Alexa 568-conjugated anti-Human IgG1 secondary antibody (Molecular Probes). […]

[3] = 30 mg/kg IP every 4 days, 3 doses
[4] = 100 mg/kg IP every 4 days, 3 doses

B1: YW412.8.31: affinity matured form of YW412.8 anti-BACE1 antibody (antibody, V domains shown)
VH: EVQLVESGGGLVQPGGSLRLSCAASGFTFLGYGIHWVRQAPGKGLEWVGWISPAGGSTDYADSVKGRFTISADTSKNTAYLQMNSLRAEDTAVYYCARGPFSPWVMDYWGQGTLVTVSS
VL: DIQMTQSPSSLSASVGDRVTITCRASQDVSTAVAWYQQKPGKAPKLLIYSASFLYSGVPSRFSGSGSGTDFTLTISSLQPEDFATYYCQQFPTYLPTFGQGTKVEIK
- reduction of forebrain Aβ1-40 ([1]; 30 mg/kg IP, 3 doses every 4 days): no reduction; also recorded: not reduced
- reduction of forebrain Aβ1-40 ([1]; 100 mg/kg IP, 3 doses every 4 days): 42%
- change in forebrain Aβ1-40 ([1]; 100 mg/kg single IP, 4 hours): no change; also recorded: not reduced
- reduction of plasma Aβ1-40 ([1]; 100 mg/kg single IP, 4 hours): ~50% and 48%
- reduction of plasma Aβ1-40 ([1]; 30 and 100 mg/kg IP, 3 doses every 4 days, 4 hours after last dose): ~50% and 50-53%
- concentration in brain [2, 3]: 0.9±0.6 μg/g and 5.9±4.3 nM
- concentration in serum [2, 3]: 480 ± 210 µg/mL
- concentration in brain [2, 4]: 3.0±1.6 μg/g and 20±10 nM
- concentration in serum [2, 4]: 1500 ± 440 µg/mL
- brain concentration as share of concentration in serum ([2]; 100 mg/kg single IP, 4 hours): ~0.07%
- concentration in brain ([2]; 100 mg/kg single IP, 4 hours): 0.7±0.4 μg/g and 4.7±2.7 nM
- concentration in serum ([2]; 100 mg/kg single IP, 4 hours): 1040±140 μg/mL and 6.9±0.9 μM
- localization of antibody signal (mouse cortical neurons; 1 μM, 10 minutes to 3 hours, 37° C.): localized intracellularly
- co-localization with vesicular compartment markers (mouse cortical neurons; TfR, VAMP4, LAMP1 co-staining): co-localized with markers for early endosomes and TGN, but not lysosomes
